This note sets out measurements from patent US20050260733A1, “Proteases and uses thereof” (WYETH, priority 2004, published 2005).

Read-outs that look alike come from different tables or passages of the source.

Experiment [1] deals with undigested bovine aggrecan (bovine) (UniProt P13608). The experiment in a line: cell-based or functional assay.
The target is the same in experiment [2]. Nature of the experiment: cell-based or functional assay. The source holds these as a separate data set.

undigested bovine aggrecan (bovine), sequence (P13608 20-2364): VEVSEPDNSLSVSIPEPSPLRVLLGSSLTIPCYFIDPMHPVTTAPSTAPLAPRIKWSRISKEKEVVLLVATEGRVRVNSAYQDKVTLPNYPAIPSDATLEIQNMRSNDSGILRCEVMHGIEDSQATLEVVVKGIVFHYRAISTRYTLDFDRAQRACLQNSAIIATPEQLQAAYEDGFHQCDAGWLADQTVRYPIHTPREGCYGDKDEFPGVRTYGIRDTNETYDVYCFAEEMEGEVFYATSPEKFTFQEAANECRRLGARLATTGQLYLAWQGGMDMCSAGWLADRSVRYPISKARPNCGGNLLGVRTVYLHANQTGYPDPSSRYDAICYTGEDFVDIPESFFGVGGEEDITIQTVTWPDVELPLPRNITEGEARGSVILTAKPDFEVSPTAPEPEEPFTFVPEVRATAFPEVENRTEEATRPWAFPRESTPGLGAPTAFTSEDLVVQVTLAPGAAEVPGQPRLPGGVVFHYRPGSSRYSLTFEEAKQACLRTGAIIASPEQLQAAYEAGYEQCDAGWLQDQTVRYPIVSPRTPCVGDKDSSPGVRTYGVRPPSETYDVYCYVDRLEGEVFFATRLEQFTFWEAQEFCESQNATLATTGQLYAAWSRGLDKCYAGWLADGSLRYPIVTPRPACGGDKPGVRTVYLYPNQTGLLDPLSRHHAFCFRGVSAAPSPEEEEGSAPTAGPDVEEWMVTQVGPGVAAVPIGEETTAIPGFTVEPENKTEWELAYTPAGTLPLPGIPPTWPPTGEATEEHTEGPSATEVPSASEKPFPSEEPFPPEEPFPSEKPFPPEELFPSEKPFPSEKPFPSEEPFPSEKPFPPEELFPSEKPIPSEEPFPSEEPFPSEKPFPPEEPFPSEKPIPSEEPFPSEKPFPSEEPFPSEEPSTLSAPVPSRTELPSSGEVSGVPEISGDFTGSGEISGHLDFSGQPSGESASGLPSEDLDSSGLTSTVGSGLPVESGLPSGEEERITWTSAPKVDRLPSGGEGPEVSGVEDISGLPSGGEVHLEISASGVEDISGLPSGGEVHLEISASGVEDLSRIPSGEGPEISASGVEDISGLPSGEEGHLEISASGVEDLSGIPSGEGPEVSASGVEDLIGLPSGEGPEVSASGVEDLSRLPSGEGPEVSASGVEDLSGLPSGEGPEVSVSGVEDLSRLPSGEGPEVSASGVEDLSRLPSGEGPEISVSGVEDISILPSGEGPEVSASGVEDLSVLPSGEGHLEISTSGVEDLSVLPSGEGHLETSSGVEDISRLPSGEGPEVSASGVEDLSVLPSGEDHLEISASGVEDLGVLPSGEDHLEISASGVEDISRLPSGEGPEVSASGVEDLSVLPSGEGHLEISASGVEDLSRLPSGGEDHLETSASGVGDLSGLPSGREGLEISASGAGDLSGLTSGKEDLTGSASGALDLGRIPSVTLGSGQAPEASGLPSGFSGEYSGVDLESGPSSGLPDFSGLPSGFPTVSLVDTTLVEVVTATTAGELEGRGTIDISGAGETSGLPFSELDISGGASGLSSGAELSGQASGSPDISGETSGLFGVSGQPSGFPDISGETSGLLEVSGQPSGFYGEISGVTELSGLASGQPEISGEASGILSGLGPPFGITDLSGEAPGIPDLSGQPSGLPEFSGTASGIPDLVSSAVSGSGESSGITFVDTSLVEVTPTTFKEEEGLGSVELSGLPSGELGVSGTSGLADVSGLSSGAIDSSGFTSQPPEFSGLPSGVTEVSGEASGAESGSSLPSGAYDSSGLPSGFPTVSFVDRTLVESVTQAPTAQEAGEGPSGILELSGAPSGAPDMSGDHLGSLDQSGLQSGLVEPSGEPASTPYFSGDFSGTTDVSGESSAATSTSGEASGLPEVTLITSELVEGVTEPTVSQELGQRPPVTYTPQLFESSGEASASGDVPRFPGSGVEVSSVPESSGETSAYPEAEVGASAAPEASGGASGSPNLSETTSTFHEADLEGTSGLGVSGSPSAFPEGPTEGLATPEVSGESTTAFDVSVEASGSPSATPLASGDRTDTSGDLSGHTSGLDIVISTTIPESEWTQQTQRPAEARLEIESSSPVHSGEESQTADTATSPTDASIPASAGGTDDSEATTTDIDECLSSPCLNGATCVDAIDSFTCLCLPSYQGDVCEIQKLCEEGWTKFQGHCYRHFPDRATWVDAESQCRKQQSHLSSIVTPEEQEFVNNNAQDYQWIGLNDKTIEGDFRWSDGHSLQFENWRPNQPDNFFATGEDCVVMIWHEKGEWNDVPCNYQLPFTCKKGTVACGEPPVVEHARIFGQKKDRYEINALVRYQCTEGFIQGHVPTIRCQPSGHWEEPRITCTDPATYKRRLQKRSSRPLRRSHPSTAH

With “recombinant ADAMTS-4 (from UniProt O75173 213-694) (enzyme)”, the amount of enzyme needed for 45% inhibition in the competitive inhibition ELISA for aggrecanase activity worked out at 1 ng in experiment [1] and 0.0135 pM in experiment [2].
